Data from patent US20180105585A1 (published 2018).

How the values were obtained:
[1] = target: T1, Biotinylated human Amyloid beta 1-42 peptide (human, N-terminal biotin); test: HTRF epitope competition, purified scFv against Abet0144-GL IgG1-TM (competitor) for biotinylated human Amyloid beta 1-42
T1 construct: Synthetic peptide (rPeptide A1117 or Bachem H-5642); range counted on Amyloid beta; also called N-terminal biotin Abeta 1-42; synthetic biotinylated human Amyloid beta 1-42 peptide

[2] = target: T1, Biotinylated human Amyloid beta 1-42 …; test: SPR (ProteOn), biotinylated peptide on streptavidin chip, scFv as analyte
[3] = target: T2, Amyloid beta plaques in Tg2576 mouse brain sections (human (transgene in mouse), UniProt P05067 672-713, limits assumed); test: in vitro immunohistochemistry, core plaques
T2 construct: domain: Amyloid beta; The two APP mutations lie before the first residue of Amyloid beta; also called native Amyloid beta; Tg2576 brain sections

[4] = target: T3, Amyloid beta plaques in human Alzheimer's Disease brain sections (human, UniProt P05067 672-713, limits assumed); test: in vitro immunohistochemistry, core plaques
T3 construct: domain: Amyloid beta; Paraffin sections treated with formic acid; aggregated native peptide of mixed length; also called native Amyloid beta; human AD brain sections
T3 sequence (P05067 672-713 limits assumed): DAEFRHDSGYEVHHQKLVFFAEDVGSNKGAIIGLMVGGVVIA

T1 sequence (peptide, as listed by the source): as the sequence (P05067 672-713 limits assumed) above
T2 sequence (P05067 672-713 limits assumed): as above

IC50 [1] [nM]	Kd [2] [nM]	koff [2] [s⁻¹]	kon [2] [M⁻¹ s⁻¹]	plaque staining score [3]	plaque staining score [4]	Binder
0.55	0.729	0.000103	141000			Abet0328 scFv (scFv, V domains shown) VH: EVQLLESGGGLVQPGGSLRLSCAASSDAFKTDTMWWVRQAPRKGLEWVSVIGAHTNNSAYADSVKGRFTISRDNSKNTLYLQMNSLRAEDTAVYYCAREWMDRSRPYYYYGMDVWGQGTLVTVSS VL: SYELTQPPSVSVSPGQTVSITCSGRNLEDKFASWYQQKPGQSPVLVIYRDDKRPSGVPERFSASNSGHTATLTISGTQATDEADYYCSSQDTVTRVFGGGTKLTVL
				4 score (0-4)	3 score (0-4)	Abet0380-GL IgG1-TM (antibody, V domains shown, Whole human IgG1 with the triple mutation L234F/L235E/P331S (TM) and human lambda light chain constant domain; also called Abet0380-GL (germlined) IgG1-TM) VH: EVQLLESGGGLVQPGGSLRLSCAASMGNFNYQTMWWVRQAPGKGLEWVSVIGKTNENIAYADSVKGRFTISRDNSKNTLYLQMNSLRAEDTAVYYCAREWMDHSRPYYYYGMDVWGQGTLVTVSS VL: SYELTQPPSVSVSPGQTASITCSGHNLEDKFASWYQQKPGQSPVLVIYRDDKRPSGIPERFSASNSGHTATLTISGTQAMDEADYYCSSQDTVTRVFGGGTKLTVL
				1 score (0-4)	1.5 score (0-4)	Abet0144-GL IgG1-TM (antibody, V domains shown, Whole human IgG1 with the triple mutation L234F/L235E/P331S (TM) and human lambda light chain constant domain; also called Abet0144-GL (germlined) IgG1-TM) VH: EVQLLESGGGLVQPGGSLRLSCAASGFTFSVYTMWWVRQAPGKGLEWVSVIGSSGGTTVYADSVKGRFTISRDNSKNTLYLQMNSLRAEDTAVYYCAREWMDHSRPYYYYGMDVWGQGTLVTVSS VL: SYELTQPPSVSVSPGQTASITCSGHNLEDKFASWYQQKPGQSPVLVIYRDDKRPSGIPERFSASNSGHTATLTISGTQAMDEADYYCQAQDSTTRVFGGGTKLTVL
